From patent US20100015126A1, “Methods of Binding of Cross-Beta Structures By Chaperones” (priority 2006, published 2010)

Experiments:
[1] = Transmission electron microscopy (TEM); type: physicochemical; conditions: 2.5 mg/ml peptide stocks
Experimental: Transmission Electron Microscopy (TEM)
TEM images were collected using a Jeol 1200 EX transmission electron microscope (Jeol Ltd., Tokyo, Japan) at an excitation voltage of 80 kV. For each sample, the formvar and carbon-coated side of a 100-mesh copper or nickel grid was positioned on a 5 μl drop of protein solution for 5 minutes. Afterwards, it was positioned on a 100 μl drop of PBS for 2 minutes, followed by three 2-minute incubations with a 100 μl drop of distilled water. The grids were then stained for 2 minutes with a 100 μl drop of 2% (m/v) methylcellulose with 0.4% uranyl acetate pH 4. Excess fluid was removed by streaking the side of the grids over filter paper, and the grids were subsequently dried under a lamp. Samples were analysed at a magnification of 10K.

[2] = biological target: T1, human BiP (Homo sapiens, UniProt P11021); experiment: ELISA: binding of BiP-FLAG-His to immobilized (misfolded) protein ligands; conditions: ligands coated at 5 μg/ml; 6BB peptides and oxLDL 50 μg/ml
T1 construct: The human BiP gene except the signal peptide encoding region was obtained from Geneart (Germany); linker […]; made in house; host or cells: HEK 293E cells, transient transfection, PABC674 vector; secreted into the medium
T1 sequence (P11021 19-654): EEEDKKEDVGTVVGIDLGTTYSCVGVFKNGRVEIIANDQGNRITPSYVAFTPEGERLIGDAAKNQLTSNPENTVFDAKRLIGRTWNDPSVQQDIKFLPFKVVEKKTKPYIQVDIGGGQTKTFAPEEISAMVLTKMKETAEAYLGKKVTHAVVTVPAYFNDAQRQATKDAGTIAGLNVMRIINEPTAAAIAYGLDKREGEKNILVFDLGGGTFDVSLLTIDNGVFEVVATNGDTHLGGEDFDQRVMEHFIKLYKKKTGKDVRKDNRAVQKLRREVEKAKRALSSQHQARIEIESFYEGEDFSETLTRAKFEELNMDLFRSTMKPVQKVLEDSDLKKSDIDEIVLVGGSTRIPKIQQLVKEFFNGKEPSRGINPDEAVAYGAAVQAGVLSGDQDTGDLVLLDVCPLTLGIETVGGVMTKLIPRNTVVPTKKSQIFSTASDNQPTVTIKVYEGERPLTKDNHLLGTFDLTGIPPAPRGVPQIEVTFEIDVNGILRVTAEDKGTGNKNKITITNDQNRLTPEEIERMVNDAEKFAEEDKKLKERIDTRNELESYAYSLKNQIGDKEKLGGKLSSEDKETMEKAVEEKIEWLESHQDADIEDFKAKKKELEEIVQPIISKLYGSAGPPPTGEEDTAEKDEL
Experimental: Enzyme Linked Immunosorbent Assay for Testing of Chaperone Binding to Misfolded Proteins
(§1) Binding of chaperones to immobilized (misfolded) protein ligands was determined using an enzyme linked immuno sorbent assay (ELISA) approach. For this purpose 50 μl/well of potential ligands at indicated concentrations or coat buffer only for control and background measurement purposes, were coated overnight at 4° C. or coated for 1 h at room temperature, with motion, in 50 mM NaHCO3 pH 9.6 (coat buffer). In general, ligands were coated at 5 μg/ml, unless stated otherwise. For example, BiP binding peptides 6BB# and oxLDL were coated at 50 μg/ml. Native haemoglobin (Sigma-Aldrich, H7379), albumin, IgIV Gammagard and ovalbumin controls were prepared from lyophilized stocks. The controls were prepared by dissolving lyophilized proteins at 1 mg/ml in PBS upon resuspending by pipetting, followed by a 30 minutes period at the roller device, at room temperature. The protein solutions were centrifuged for 10 minutes at 16,000*g and diluted in coat buffer. After coating the plates were washed at least three times with 50 mM Tris-HCl pH 7.3, 150 mM NaCl, 0.1% v/v Tween20, and blocked with Blocking reagent (Roche Diagnostics, Almere, The Netherlands; 11112589001), for 1 h at room temperature, with motion. Plates were washed three times and incubated in triplicate with indicated chaperone dilution series, at 50 μl/well, for 1 h at room temperature, with constant motion. For HSP90, 5 mM DTT is incorporated in the binding buffer (PBS/0.1% Tween20) to avoid unwanted disulfide bond formation of the HSP90. Plates were washed three times and incubated with anti-FLAG antibody (mouse antibody, M2, peroxidase conjugate; Sigma, A-8592) for BiP-FLAG-His, anti-His-tag antibody (Mouse Monoclonal Antibody, Cat. No. 70796, Novagen [0.2 mg/ml]) for HSP60, a 1:1 mix of 500-fold diluted anti-HSP90beta antibodies (Stressgen, SPA-643 [mouse monoclonal IgM], SPA-646 [rabbit polyclonal]) for HSP90 and an anti-DnaK antibody (Stressgen, 023SPA-880D [mouse monoclonal antibody]) for DnaK. After four wash cycles, secondary antibodies were added to the wells when required, 50 μl/well, for 45′ at room temperature, with motion. RAMPO and SWARPO were used at 3000 times dilution. […] In a second experiment with more immobilized misfolded proteins and controls, the detection of bound HSP90 with the mix of two anti-HSP90 antibodies was achieved by mixing 1:1500 SWARPO with 1:3000 RAMPO. After 5 washes with wash buffer followed by two washes with PBS, binding of antibodies was assessed. Bound anti-FLAG-PO, peroxidase-conjugated rabbit anti-mouse immunoglobulins (RAMPO, P0260, DAKOCytomation, Glostrup, Denmark) or peroxidase-coupled swine anti-rabbit immunoglobulins (SWARPO, P0217, DAKOCytomation) was visualized with tetramethylbenzidine (TMB, #45.01.20,/#45.014.01, Biosource, Nivelles, Belgium). The reaction was stopped after 5 minutes with 1% H2SO4 in H2O. Plates were read at 450 nm. Triplicates were averaged and standard deviations calculated. Background signals obtained with buffer-coated wells were subtracted (binding of primary antibody to empty wells), as well as background signals obtained with ligand-coated wells in which the chaperones were omitted (binding of primary and secondary antibody to coated ligands). Subsequently, sub-optimal concentrations of chaperones for binding to misfolded protein ligands are determined, and these concentrations are used for inhibition studies. […] We have previously identified that a sub-fraction of IgIV molecules has affinity for misfolded proteins comprising crossbeta structure (pending patent application). Moreover, we identified that the sub-fraction of IgIV molecules directly binds to crossbeta structure and/or crossbeta structure induced conformation (not shown; pending patent application). […]

[3] = biological target: T1, human BiP; experiment: Competition ELISA: BiP binding to misfolded proteins under influence of crossbeta binding compounds; conditions: fixed sub-optimal BiP concentration
Experimental: Binding of chaperones to immobilized (misfolded) protein ligands was determined using an enzyme linked immuno sorbent assay (ELISA) approach. For this purpose 50 μl/well of potential ligands at indicated concentrations or coat buffer only for control and background measurement purposes, were coated overnight at 4° C. or coated for 1 h at room temperature, with motion, in 50 mM NaHCO3 pH 9.6 (coat buffer). In general, ligands were coated at 5 μg/ml, unless stated otherwise. For example, BiP binding peptides 6BB# and oxLDL were coated at 50 μg/ml. Native haemoglobin (Sigma-Aldrich, H7379), albumin, IgIV Gammagard and ovalbumin controls were prepared from lyophilized stocks. The controls were prepared by dissolving lyophilized proteins at 1 mg/ml in PBS upon resuspending by pipetting, followed by a 30 minutes period at the roller device, at room temperature. The protein solutions were centrifuged for 10 minutes at 16,000*g and diluted in coat buffer. After coating the plates were washed at least three times with 50 mM Tris-HCl pH 7.3, 150 mM NaCl, 0.1% v/v Tween20, and blocked with Blocking reagent (Roche Diagnostics, Almere, The Netherlands; 11112589001), for 1 h at room temperature, with motion. Plates were washed three times and incubated in triplicate with indicated chaperone dilution series, at 50 μl/well, for 1 h at room temperature, with constant motion. For HSP90, 5 mM DTT is incorporated in the binding buffer (PBS/0.1% Tween20) to avoid unwanted disulfide bond formation of the HSP90. […] After four wash cycles, secondary antibodies were added to the wells when required, 50 μl/well, for 45′ at room temperature, with motion. RAMPO and SWARPO were used at 3000 times dilution. […] In a second experiment with more immobilized misfolded proteins and controls, the detection of bound HSP90 with the mix of two anti-HSP90 antibodies was achieved by mixing 1:1500 SWARPO with 1:3000 RAMPO. After 5 washes with wash buffer followed by two washes with PBS, binding of antibodies was assessed. Bound anti-FLAG-PO, peroxidase-conjugated rabbit anti-mouse immunoglobulins (RAMPO, P0260, DAKOCytomation, Glostrup, Denmark) or peroxidase-coupled swine anti-rabbit immunoglobulins (SWARPO, P0217, DAKOCytomation) was visualized with tetramethylbenzidine (TMB, #45.01.20,/#45.014.01, Biosource, Nivelles, Belgium). The reaction was stopped after 5 minutes with 1% H2SO4 in H2O. Plates were read at 450 nm. Triplicates were averaged and standard deviations calculated. Background signals obtained with buffer-coated wells were subtracted (binding of primary antibody to empty wells), as well as background signals obtained with ligand-coated wells in which the chaperones were omitted (binding of primary and secondary antibody to coated ligands). Subsequently, sub-optimal concentrations of chaperones for binding to misfolded protein ligands are determined, and these concentrations are used for inhibition studies.
In a subsequent study we analysed whether BiP interacts directly with the crossbeta structure, by performing ELISA binding studies with a fixed sub-optimal concentration of BiP and concentration series of crossbeta binding compounds. The results are depicted in FIGS. 12, 13 and Table 7. Binding of BiP without added crossbeta binding compounds was set to 100%.

[4] = biological target: T2, Escherichia coli HSP70 family member DnaK (Escherichia coli, UniProt P0A6Y8); experiment: ELISA: binding of DnaK to immobilized (misfolded) protein ligands
T2 construct: purchased Stressgen (Ann Arbor, Mich., USA) SPP-630
T2 sequence (P0A6Y8 whole entry): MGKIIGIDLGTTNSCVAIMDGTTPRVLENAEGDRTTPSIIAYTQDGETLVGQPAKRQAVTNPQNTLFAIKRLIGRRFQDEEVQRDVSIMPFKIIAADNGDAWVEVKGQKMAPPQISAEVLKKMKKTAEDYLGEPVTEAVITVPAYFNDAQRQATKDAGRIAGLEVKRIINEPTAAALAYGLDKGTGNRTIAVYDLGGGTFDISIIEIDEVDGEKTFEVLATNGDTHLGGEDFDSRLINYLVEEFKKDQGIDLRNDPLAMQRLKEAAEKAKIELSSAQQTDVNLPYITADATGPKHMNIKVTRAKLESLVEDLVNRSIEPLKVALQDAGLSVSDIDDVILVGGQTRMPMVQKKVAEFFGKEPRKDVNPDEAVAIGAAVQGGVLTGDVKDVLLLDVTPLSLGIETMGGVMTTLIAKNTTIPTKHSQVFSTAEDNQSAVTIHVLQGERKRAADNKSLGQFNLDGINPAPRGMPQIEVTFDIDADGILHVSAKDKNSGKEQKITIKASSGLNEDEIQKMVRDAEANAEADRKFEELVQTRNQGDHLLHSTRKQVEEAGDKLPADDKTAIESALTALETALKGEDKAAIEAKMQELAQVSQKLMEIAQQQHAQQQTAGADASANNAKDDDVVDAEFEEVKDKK
Experimental: Recombinant Escherichia coli (E. coli) DnaK was purchased from Stressgen (Ann Arbor, Mich., USA; SPP-630). For the binding studies first lot B502468 (100 μg, lot A) and then lot 05240609 (200 μg, lot B) was used.
as §1

[5] = biological target: T1, human BiP; experiment: ELISA: binding of BiP in cell culture supernatant to immobilized misfolded proteins; conditions: undiluted supernatant of 293E cells overexpressing BiP; ligands coated at 5 μg/ml, Aβ 20 μg/ml
Experimental: Binding of BiP to Misfolded Proteins with Crossbeta Structure
Proteins at 5 μg/ml were coated for 1 h at room temperature with agitation, in Microlon high-binding ELISA plates (Greiner) in 50 mM NaHCO3 pH 9.6, except for Aβ that was coated at 20 μg/ml. Buffer was coated as negative control. A twofold dilutions series of cell culture supernatant of HEK 293E cells overexpressing BiP was also coated to the plate for anti-FLAG-tag antibody control purposes. Plates were washed and blocked with ½*Blocking reagent (Roche). Undiluted cell culture supernatant enriched with 0.1% Tween20 was added to the wells with immobilized protein ligands and incubated for 1 h at room temperature with agitation. Medium was discarded and the plate was washed with PBS with 0.1% v/v Tween20. Mouse monoclonal anti-FLAG-tag antibody (Sigma, A8592, anti-FLAG M2PO conjugate) was diluted 1000× in PBS/0.1% Tween20 and added to all wells, including those that are coated with cell culture supernatant. After a 1 h incubation at room temperature with agitation and after washing, wells were overlayed with 3000× diluted RAMPO (DAKOCytomation) in PBS/0.1% Tween20. After 30 minutes the plate was washed and bound peroxidase was visualised with tetramethylbenzidine (TMB, #45.103.20/#45.014.01, Biosource, Nivelles, Belgium). The reaction was stopped after 5 minutes with 10% H2SO4 in H2O. Plates were read at 450 nm.

| Substance | TEM [1] | Binding of concentration series of BiP to coated ligand [2] | Influence of Congo red on interaction of BiP with misfolded protein ([3]; concentration series of Congo red) | Influence of ThS on interaction of BiP with misfolded protein ([3]; concentration series of ThS) | Influence of ThT on interaction of BiP with misfolded protein ([3]; concentration series of ThT) | Binding of concentration series of DnaK to coated ligand [4] | Binding of BiP to immobilized protein (ELISA) [5] |
| --- | --- | --- | --- | --- | --- | --- | --- |
| HWDFAWPW [6BB10] | Nothing visible^† | has been established | ↓ (a ↓ sign refers to inhibited abolished binding of BiP) | ↓ (a ↓ sign refers to inhibited abolished binding of BiP) | ↓ (a ↓ sign refers to inhibited abolished binding of BiP) | did not bind | – |
| d-lysozyme: heat-denatured hen egg-white lysozyme | – | – | – | – | – | – | more pronounced |
